Measurements: article PMC11592472

Key:
[1] = biological target: equine LH/CGR trileucine mutant eLH/CGR-ALL (equine)
[2] = biological target: equine lutropin/choriogonadotropin receptor, wild type (eLH/CGR-wt) (equine)
[3] = biological target: equine LH/CGR trileucine mutant eLH/CGR-LLA (equine)
[4] = biological target: equine LH/CGR trileucine mutant eLH/CGR-LAL (equine)
[5] = biological target: equine LH/CGR trileucine mutant eLH/CGR-AAA (equine)

Q: “recombinant equine chorionic gonadotropin (rec-eCG) (from UniProt P01220 25-120; P08751 21-169) (ligand)” was tested. Which EC50 of the cAMP response (HTRF) of transfected CHO-K1 cells stimulated with rec-eCG for 30 min at room temperature [1] did it give?
A: The EC50 of the cAMP response (HTRF) of transfected CHO-K1 cells stimulated with rec-eCG for 30 min at room temperature was 0.0046 µg/mL.

Q: What about the EC50 of the cAMP response (HTRF) of transfected CHO-K1 cells stimulated with rec-eCG for 30 min at room temperature [2] of the same substance?
A: The EC50 of the cAMP response (HTRF) of transfected CHO-K1 cells stimulated with rec-eCG for 30 min at room temperature was 0.0185 µg/mL.

Q: What about the EC50 of the cAMP response (HTRF) of transfected CHO-K1 cells stimulated with rec-eCG for 30 min at room temperature [3] of the same substance?
A: Its EC50 of the cAMP response (HTRF) of transfected CHO-K1 cells stimulated with rec-eCG for 30 min at room temperature is 0.0197 µg/mL.

Q: And the EC50 of the cAMP response (HTRF) of transfected CHO-K1 cells stimulated with rec-eCG for 30 min at room temperature [4]?
A: The EC50 of the cAMP response (HTRF) of transfected CHO-K1 cells stimulated with rec-eCG for 30 min at room temperature was 0.0143 µg/mL.

Q: What about the EC50 of the cAMP response (HTRF) of transfected CHO-K1 cells stimulated with rec-eCG for 30 min at room temperature [5] of the same substance?
A: The EC50 of the cAMP response (HTRF) of transfected CHO-K1 cells stimulated with rec-eCG for 30 min at room temperature was 0.0352 µg/mL.
